Measured values published in paper PMC8500521.

Target: HR2 (heptad repeat 2) polypeptide of SARS-CoV-2 spike protein (SARS-CoV-2) (UniProt P0DTC2)
Assay: AUC; sedimentation velocity, 50,000 rpm, 20 C, 50 mM NaCl, 25 mM sodium phosphate pH 6.0, no detergent; monomer to tetramer

Question: Which monomer population at 250 uM does the source give for “HR2 (heptad repeat 2) polypeptide of SARS-CoV-2 spike protein (from UniProt P0DTC2 1171-1207) (domain or fragment)” here?
Answer: 10%

Question: And the stoichiometry N?
Answer: 4
